Test results from patent US20070104676A1, “Cosmetic and/or dermatological preparations containing an extract from the seeds of plants of the genus adenanthera” (COGNIS FRANCE S.A., priority 2003, published 2007).

Columns and labels:
pancreas elastase = pancreas elastase (Sus scrofa, UniProt P00772); assay: Inhibition of elastase activity; assay type: biochemical
Experimental: In order to test the effectiveness of the plant extract in inhibiting the release of elastase, pancreas elastase (a serine protease) was investigated and, as substrate, elastin was marked with a chromogenic synthetic substrate. The system was incubated with the active principles for 30 minutes at room temperature and then, after centrifuging, the optical density of the dye was determined at 410 nm. The extracts were used in a quantity of 0.3% by weight. The results are set out in Table 1 where they are expressed relative to a control as standard (=0%); a1-antitrypsin was used as the standard.

Human plasmin = target: T1, Human plasmin (Homo sapiens, UniProt P00747); assay: Inhibition of plasmin activity (quenched fluorescent casein hydrolysis); assay type: biochemical; conditions: reference substance
T1 construct: purchased Sigma
Experimental: Method: Human plasmin obtained from Sigma was mixed with the extract in a quantity of 0.3% by weight and incubated for a few minutes at 20° C. Natural casein marked with a quenched fluorescence probe (Interchim natural) was then added. The protease-catalyzed hydrolysis degraded the quenching and produced a fluorescence signal. The proportion of hydrolyzed substrate was determined by measuring the increased green fluorescence over a period of 30 minutes. […] The inhibition of enzyme activity was evaluated by comparison with a control and a reference substance SBT1 (Sigma).

Sequence of pancreas elastase (P00772 27-266): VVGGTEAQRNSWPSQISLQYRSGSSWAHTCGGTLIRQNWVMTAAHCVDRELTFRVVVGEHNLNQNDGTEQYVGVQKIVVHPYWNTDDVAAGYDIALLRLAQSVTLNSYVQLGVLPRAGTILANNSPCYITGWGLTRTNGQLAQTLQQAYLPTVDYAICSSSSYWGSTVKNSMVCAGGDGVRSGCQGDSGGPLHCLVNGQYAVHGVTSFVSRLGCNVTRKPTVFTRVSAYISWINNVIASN
T1 sequence (P00747 581-810 limits assumed): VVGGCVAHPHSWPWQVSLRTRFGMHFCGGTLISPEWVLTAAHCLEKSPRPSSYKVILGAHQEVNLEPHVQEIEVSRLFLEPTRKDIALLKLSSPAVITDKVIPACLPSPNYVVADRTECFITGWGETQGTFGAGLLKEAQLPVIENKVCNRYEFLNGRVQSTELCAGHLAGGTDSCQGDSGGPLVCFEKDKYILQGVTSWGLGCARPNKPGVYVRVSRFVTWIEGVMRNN
T1 sequence (P00747 97-580 partner limits assumed): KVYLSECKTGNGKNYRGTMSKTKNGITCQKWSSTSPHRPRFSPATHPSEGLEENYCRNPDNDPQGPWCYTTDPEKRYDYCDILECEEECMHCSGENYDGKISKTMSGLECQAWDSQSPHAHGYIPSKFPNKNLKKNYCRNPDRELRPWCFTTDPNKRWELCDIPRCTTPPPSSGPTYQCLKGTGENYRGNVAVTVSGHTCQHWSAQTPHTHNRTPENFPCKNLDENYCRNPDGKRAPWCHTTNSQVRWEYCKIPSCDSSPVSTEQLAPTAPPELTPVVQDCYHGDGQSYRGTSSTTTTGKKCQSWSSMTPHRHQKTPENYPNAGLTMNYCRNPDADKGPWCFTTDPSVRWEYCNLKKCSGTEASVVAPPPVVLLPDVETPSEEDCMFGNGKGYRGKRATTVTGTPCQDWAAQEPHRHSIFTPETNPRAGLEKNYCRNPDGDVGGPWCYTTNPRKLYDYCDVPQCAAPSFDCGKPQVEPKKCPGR

## α1-anti-trypsin: Standard used in the elastase inhibition test
Pancreas elastase
  IC50 (elastase inhibition, standard): IC50 = 0.13 mg/ml

B1: SBTI: Reference substance (Sigma) in the plasmin inhibition test (protein, UniProt P01070 25-205, looked up)
Trypsin inhibitor A: DFVLDNEGNPLENGGTYYILSDITAFGGIRAAPTGNERCPLTVVQSRNELDKGIGTIISSPYRIRFIAEGHPLSLKFDSFAVIMLCVGIPTEWSVVEDLPEGPAVKIGENKDAMDGWFRLERVSDDEFNNYKLVFCPQQAEDDKCGDIGISIDHDDGTRRLVVSKNKPLVVQFQKLDKESL
Human plasmin
  IC50 (plasmin inhibition, standard): 0.006%
